Tested on: Helicobactor pylori
Assay: Growth of Helicobactor pylori in 96-well microplate (turbidity at 600 nm)
Assay type: cell-based
Details: 37° C. for 3 days; for suppression of the growth of Helicobactor pylori: 2 μL of 1 mg/mL added to 200 μL culture; for absorbance (turbidity at 600 nm): 2 μL of 1 mg/mL added to 200 μL of 1.5×10^8 CFU/mL in Brucella medium with 5% FCS, slightly aerobic, control group 0.835

Compound	suppression of the growth of Helicobactor pylori	absorbance (turbidity at 600 nm)
CC1(C)S[C@@H]2[C@H](NC(=O)C(NCC(O)C3OCC(O)C3OC3OC(CO)C(OS(=O)(=O)O)C(O)C3O)c3ccccc3)C(=O)N2C1C(=O)O (stereo partly shown) [CarrabioAM]	totally suppressed the growth	0.003
CON=C(C(=O)N[C@@H]1C(=O)N2C(C(=O)O)=C(COC(C)=O)CS[C@H]12)c1csc(NCC(O)C2OCC(O)C2OC2OC(CO)C(OS(=O)(=O)O)C(O)C2O)n1 (stereo partly shown) [CarrabioCTX]	totally suppressed the growth	0.000

From patent publication US7498317B2, “Antibacterial agents and process for producing the same” (Kabushiki Kaisha Yakult Honsha, priority 1998, dated 2009)
